Assay in all cases: ITC
In general terms: ITC needs no label: the signal is the heat of the interaction.

One assay addresses T1, AnkG R1-24 H384A (Rattus norvegicus).
T1 chain: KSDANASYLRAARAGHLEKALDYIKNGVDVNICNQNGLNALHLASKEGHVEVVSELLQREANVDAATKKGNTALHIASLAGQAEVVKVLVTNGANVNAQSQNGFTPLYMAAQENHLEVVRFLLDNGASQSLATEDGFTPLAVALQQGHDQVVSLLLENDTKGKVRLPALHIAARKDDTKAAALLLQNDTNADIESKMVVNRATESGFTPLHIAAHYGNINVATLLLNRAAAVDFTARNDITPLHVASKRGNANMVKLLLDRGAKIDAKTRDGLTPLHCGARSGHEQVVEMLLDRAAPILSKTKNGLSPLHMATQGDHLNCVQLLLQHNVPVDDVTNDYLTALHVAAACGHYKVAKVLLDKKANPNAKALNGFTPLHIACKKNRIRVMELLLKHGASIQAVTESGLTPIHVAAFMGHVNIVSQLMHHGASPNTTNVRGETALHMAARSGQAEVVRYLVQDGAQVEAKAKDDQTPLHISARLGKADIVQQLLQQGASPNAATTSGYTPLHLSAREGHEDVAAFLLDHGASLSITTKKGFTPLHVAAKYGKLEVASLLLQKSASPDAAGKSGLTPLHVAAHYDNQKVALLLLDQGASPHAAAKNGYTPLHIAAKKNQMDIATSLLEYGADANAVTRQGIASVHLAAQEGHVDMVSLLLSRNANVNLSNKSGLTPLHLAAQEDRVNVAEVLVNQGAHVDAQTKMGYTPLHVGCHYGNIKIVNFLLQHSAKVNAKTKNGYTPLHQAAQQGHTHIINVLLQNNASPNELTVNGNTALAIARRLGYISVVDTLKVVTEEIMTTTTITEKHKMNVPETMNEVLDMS

Another assay has as its target T2, AnkG R1-24 V282Q (Rattus norvegicus).
T2 chain: T1 chain with V245Q, A347H

A further assay has as its target T3, AnkG R1-24 I277Q, L310Q (Rattus norvegicus).
T3 chain: T1 chain with I240Q, L273Q, A347H

Positions count from the first letter of the chain named.

B1: Nfasc ankyrin-binding domain (ABD, residues 1187-1214) (domain or fragment, UniProt P97685 1187-1214, looked up)
chain: SDDSLVDYGEGGEGQFNEDGSFIGQYTV
notes: also called Nfasc ABD; source: E. coli BL21 (DE3), purified (Ni-NTA, size-exclusion chromatography)
As a reminder, the Kd is a measure of binding affinity in units of concentration. Low readings indicate higher affinity, high ones lower affinity. Regarding B1, the Kd with AnkG R1-24 H384A worked out at 1.7 µM; in the assay with AnkG R1-24 V282Q it was 1.3 µM; in the assay with AnkG R1-24 I277Q, L310Q, 3 µM.

Source of the values: article PMC9396398, “Crystal structure of Ankyrin-G in complex with a fragment of Neurofascin reveals binding mechanisms required for integrity of the axon initial segment” (The Journal of Biological Chemistry, 2022).
